Test results from PMC2834479 (International journal of pharmaceutics, 2010).
Where two headings read alike, the source gives them in different places. Marks after values point to notes of the source that are not given here.

Experiments:
[1] = tested on: anesthetized, hyperglycemic rats; assay: Blood glucose levels; assay type: in vivo, rat; details: nose drops, 2 units of insulin, mean +/- SEM, n=3-6; for Blood Glucose AUC 0-180: trapezoidal rule
[2] = rat, in vivo
[3] = rat, in vivo; remark: listed apart in the source
[4] = Plasma insulin levels after nasal administration of insulin nose drops; details: rats, 2 units of insulin, with 0.125% TDM, human insulin RIA, mean +/- SEM, n = 3-6
[5] = tested on: cells that line the nasal cavity; details: 0.125% TDM, ref Arnold et al., 2004; cited from earlier work
[6] = with 0.125% TDM, basal glucose 303 to 393 mg/dl

| Compound | Blood Glucose at 60 minutes after Insulin administration [1, 6] | Blood Glucose AUC 0-180 [1, 6] | Absorption of insulin from the nasal cavity (in words) [2] | Plasma Insulin AUC 0-180 [3] | Plasma Insulin C-max [3] | Plasma Insulin T-max [3] | Blood Glucose AUC 0-180 ([1]; without TDM (0%)) | Blood Glucose at 60 minutes after Insulin administration ([1]; without TDM (0%), upper limit of glucometer = 600 mg/dL) | Plasma Insulin C-max [4] | Plasma Insulin AUC 0-180 ([4]; up to 180 minutes, trapezoidal rule) | Toxicity to the cells that line the nasal cavity [5] |
| --- | --- | --- | --- | --- | --- | --- | --- | --- | --- | --- | --- |
| Glargine Insulin | 183 +/- 26 ^a mg/dL | 36345 +/- 3600 ^a mg/dL × minutes | absorbed from the nasal cavity | 67170 +/- 4800 ^a, ^b uU/ml × minutes | 500 +/- 52 ^a, ^b uU/ml | 60 min | – | – | – | – | – |
| Regular Insulin: regular insulin (Novolin R®), Novo Nordisk | 135 +/- 22 ^a mg/dL | 32745 +/- 2400 ^a mg/dL × minutes | – | – | – | – | 93728 ± 2600 mg·min/dL | 600 +/- 10 ^** mg/dL | 874 +/- 56 ^a uU/ml | 33398 +/- 2500 ^a uU/ml × minutes | – |
| Aspart Insulin | 205 +/- 13 ^a, ^b mg/dL | – | absorbed from the nasal cavity | 55238 +/- 4600 ^a, ^b uU/ml × minutes | – | 15 min | – | – | – | – | – |
| CCCCCCCCCCCCCCO[C@@H]1O[C@H](CO)[C@@H](O[C@H]2O[C@H](CO)[C@@H](O)[C@H](O)[C@H]2O)[C@H](O)[C@H]1O [TDM, tetradecyl-β-D-maltoside] | – | – | – | – | – | – | – | – | – | – | minimal toxicity |
| Lispro Insulin | 160 +/- 27 ^a mg/dL | 39863 +/- 3200 ^a mg/dL × minutes | – | 41820 +/- 3300 ^a uU/ml × minutes | – | 15 min | – | – | – | – | – |
